Test results from the DeepSol protein solubility set.

Test: soluble on expression in E. coli; label from the status in PepcDB or PDB records

Sequence | soluble on expression in E. coli
MGHHHHHHSHKPDEDDANRLGEKVILREQVKELFNEKYGEALGLNRPVLVPYKLIRDSPDAVEVTGLPDDIPFRNPNTYDIHRLEKILKAREHVRMVIINQLQPFAEICNDAKVPAKDSSIPKRKRKRVSEGNSVSSSSSSSSSSSSNPDSVASANQISLVQWPMYMVDYAGLNVQLPGPLNY | not soluble
MGHHHHHHSHLKDNRVVTMEVEARNLDKKDFLGKSDPFLEFFRQGDGKWHLVYRSEVIKNNLNPTWKRFSVPVQHFCGGNPSTPIQVQCSDYDSDGSHDLIGTFHTSLAQLQAVP | not soluble
MGHHHHHHSHLPGNTRKMDKTTVLEKVIGFLQKHNEVSAQTEICDIQQDWKPSFLSNEEFTQLMLEALDGFIIAVTTDGSIIYVSDSITPLLGHLPSDVMDQNLLNFLPEQEHSEVYKILSSHMLVTDSPSP | soluble
MGHHHHHHSHMAIQVDKFNFESFPESPGEKGQFANPKQLEEERREARGLEIHSKLGICWRIPSLKRSGEASVEGLLNQLVLEHLQLAPLQWDVLVDGQPCDREAVAACQVGDPVRLEVRLTNRSPRSVGPFALTVVPFQDHQNGVHNYDLHDTVSFVGSSTFYLDAVQPSGQSACLGALLFLYTGDFFLHIRFHEDSTSKELPPSWFCLPSVHVCALEAQA | not soluble
MGHHHHHHSHMANSAGSMANSAGSPGSLFRFAVPPALGSNLTDNVMITVDIIPSGWNSADGKSDKTKSAPSRDPERLQKIKESLLLEDSEEEEGDLCRICQMAAASSSNLLIEPCKCTGSLQYVHQDCMKKWLQAKINSGSSLEAVTTCELCKEKLELNLEDFDIHELHRAHANEQAEYEFISSGLYLVVLLHLCEQSFSDMMGNTNEPSTRVRFINLARTLQAHMEDLETSEDDSEEDGDHNRTFDIA | soluble
MGHHHHHHSHMANSMANSMNNRTRLALIICNTEFDHLPPRNGADFDITGMKELLEGLDYSVDVEENLTARDMESALRAFATRPEHKSSDSTFLVLMSHGILEGICGTVHDEKKPDVLLYDTIFQIFNNRNCLSLKDKPKVIIVQACRGANRGELWVRDSPASLEVASSQSSENLEEDAVYKTHVEKDFIAFCSSTPHNVSWRDSTMGSIFITQLITCFQKYSWCCHLEEVFRKVQQSFETPRAKAQMPTIERLSMTRYFYLFPGN | not soluble
MGHHHHHHSHMASGFIEIANKQGLTATLLPFGATLAKLTFPDKNGKNQDLVLGFDTIDEFEKDAASIGKTVGRVANRIKNSTLHFDGKQYTMTPNNGPHYLHGGPNGLGYRKWEVVRHAPESVSFSVRANEQDDGLPGDAKIDVTYTVNDRNQLIIEHHATCDTPGLLALTNHAYWNLDGSDTVAEHFLEMEADEFVEVDDTFCPTGAIRSVTDTGFDFRSGKQLKESGKDAEELLDLDNDLVITKKTPPSTPSTYLRFWSEKSGIELSITTSYPVIHLYASKFLDCKGKKGEHYKANKALAIEPQFHSAAPNFDHFPDVSLRPGDHYCQEIVYTFSHVN | soluble
MGHHHHHHSHMCNGSFTEKLKLLFKLHIPPAYTEVKSKDASKGDELSKEELLYFSQLHVSKPANEKEAESAKHSPEKGKGKIDIQAYLSQWQDELFKKEENIKDLPRMNQSQFIQFSKTLYNLFHEDPEEESLYQAIAVVTSLLLRMEEVGRKLHSPTSSAKGFSGTVCGSGGPSEEKTGSHLEKDPCSFREEPQWSFAFEQILASLLNEPALVRFFEKPIDVKAKLENARISQLRSRTKM | soluble
MGHHHHHHSHMDPEVTLLLQCPGGGLPQEQIQAELSPAHDRRPLPGGDEAITAIWETRLKAQPWLFDAPKFRLHSATLAPIGSRGPQLLLRLGLTSYRDFLGTNWSSSAAWLRQQGATDWGDTQAYLADPLGVGAALATADDFLVFLRRSRQVAEAPGLVDVPGGHPEPQALCPGGSPQHQDLAGQLVVHELFSSVLQEICDEVNLPLLTLSQPLLLGIARNETSAGRASAEFYVQCSLTSEQVRKHYLSGGPEAHESTGIFFVETQNVRRLPETEMWAELCPSAKGAIILYNRVQGSPTGAALGSPALLPPL | not soluble
MGHHHHHHSHMDVPYLINCLVFLFCFSKSNEHSSEYPFVRDLSLEGRLLAKNICTFNIHIHIYTHFFLRQRFTLSPRLKCSGMIIVHCSLYLLGSSNPPT | not soluble
MGHHHHHHSHMEHPLEMPICAFQLPDLTVYNEDFRSFIERDLIEQSMLVALEQAGRLNWWVSVDPTSQRLLPLATTGDGNCLLHAASLGMWGFHDRDLMLRKALYALMEKGVEKEALKRRWRWQQTQQNKESGLVYTEDEWQKEWNELIKLASSEPRMHLGTNGANCGGVESSEEPVYESLEEFHVFVLAHVLRRPIVVVADTMLRDSGGEAFAPIPFGGIYLPLEVPASQCHRSPLVLAYDQAHFSALVSMEQKENTKEQAVIPLTDSEYKLLPLHFAVDPGKGWEWGKDDSDNVRLASVILSLEVKLHLLHSYMNVKWIPLSS | soluble
MGHHHHHHSHMEKCSVGGLELTEQTPALLGNMAMATSLMDIGDSFGHPACPLVSRSRNSPVEDDDDDDDVVFIESIQPPSISAPAIADQRNFIFASSKNEKPQGNYSVIPPSSRDLASQKGNISETIVIDDEEDIETNGGAEKKSSCFIEWGLPGTKNKTNDLDFSTSSLSRSKVNAGMGNSGITTELTLKYIITNVTTLETGISSVNAGQDVNIIITYKTSL | not soluble
MGHHHHHHSHMIVNVIGAGLAGSEVAYNLGKRGIRVRLFEMRPKKMTEVHKTGYFAELVCSNSLKSEDITNAEGLLKAEMRLMGSITLEAAEKARVPSGKALAVDRNIFAKEVTEVIERLESVEIIREEVTEFDPEEGIWVVATGPATSDGLLPFLKKLLGDDLLFFFDAVSPIVTFESIDMECAFWGDRFGKGKDYINCPLTKEEYEEFWKALVEAEVIEMEDFDRKLLFERCQPIEEIARSGKDALRYGPLRPTGLVDPRTGKEPYAVVQLRREDKEGRFYSLVGFQTRLKWSEQKRVLRKIPCLRNAEIVRYGVMHRNVYINSPKLLDIFFRLKKHPNIFFAGQITGVEGYMESAASGIYVAYNVHRILKGLSPLKLPEETMMGALFSYIIEKVEGDLKPMYANFGLLPPLKVRVKDKFEKRKKLAERAIETMKKFLEENPW | soluble
MGHHHHHHSHMKAEGKKPISKIPKKGFVEVTELTDVTYTSNLVRLRPGHMNVVLILSNSTKTSLLQKFALEVYTFTGSSCLHFSFLSLDKHREWLEYLLEFAQDAAPIPNQYDKHFMERDYTGYVLALNGHKKYFCLFKPQKTVEEEEAIGSCSDVDSSLYLGESRGKPSCGLGSRPIKGKLSKLSLWMERLLEGSLQRFYIPSWPELD | not soluble
MGHHHHHHSHMKQTAESIRDRFMKLGIDVPVEDIESRLDELIKKFKVPSNEAQRSVTNYFLKKYSIPKNEFYVRQAEPQLTKIVDIVENGQWANLKAKVIQLWENTHESISQVGLLGDETGIIKFTIWKNAELPLLEQGESYLLRSVVVGEYNDRFQVQVNKNSSIEKLSEPIEVGGGDFTPAAREAELRNIADLTGNQWATVRGKVIQLWENSHESIEQAGLIGDETGVIKFTNWASSELPDMEEGRSYLLKNVVVNEWNGKAQVQLNRSSSIEELDEDIEVRTSMSSYFGAMVDIQTGSGLIKRCPECKRALVKGACAEHGKVKGEYDLRIKAVLDSGTSTQDALINRELTEELSGISLDSAIAMAADALDPGVVLDKLKHELVGRYYTITGHKLDRYILVESITPRTSLDRELLDQMLAEPIAQPEVE | soluble
MGHHHHHHSHMKYGNPNYGGMKGILSNSWKRRYHSRRIQRDVIKKRALIGDDVGLTSYKHRHSGLVNVPEEPIEEEEEEEEEEEEEEEEDQDMDADDRVVVEYHEELPALKQPRERSASRRSSASSSDSDEMDYDLELKMISTPSPKKSMKMTMYADEVESQLKNIRNSMRADSVSSSNIKNRIGNKLPPEKFADVRHLLDEKRQHSRPRPPVSSTKSDIRQRLGKRPHSPEKAFSSNPVVRREPSSDVHSRLGVPRQDSKGLYADTREKKSGNLWTRLGSAPKTKEKNTKKVDHRAPGAEEDDSELQRAWGALIKEKEQSRQKKSRLDNLPSLQIEVSRESSSGSEAES | not soluble
MGHHHHHHSHMLKKMGEAVARVARKVNETVESGSDTLDLAECKLVSFPIGIYKVLRNVSGQIHLITLANNELKSLTSKFMTTFSQLRDVPVEKLAAMPALRSINLRFNPLNAEVRVIAPPLIKFDMLMSPEGARAPLP | not soluble
MGHHHHHHSHMMYAQSKGIYYVQLEDDIVAKPNYLSTMKNFALQQPSEDWMILEFSQLGFIGKMFKSLDLSLIVEFILMFYRDKPIDWLLDHILWVKVCNPEKDAKHCDRQKANLRIRFKPSLFQHVGTHSSLAGKIQKLKDKDFGKQALRKEHVNPPAEVSTSLKTYQHFTLEKAYLREDFFWAFTPAAGDFIRFRFFQPLRLERFFFRSGNIEHPEDKLFNTSVEVLPFDNPQSDKEALQEGRTATLRYPRSPDGYLQIGSFYKGVAEGEVDPAFGPLEALRLSIQTDSPVWVILSEIFLKKAD | soluble
MGHHHHHHSHMNIPLEELQRNLQFHAFISYSGHDSFWVKNELLPNLEKEGMQICLHERNFVPGKSIVENIITCIEKSYKSIFVLSPNFVQSEWCHYELYFAHHNLFHEGSNSLILILLEPIPQYSIPSSYHKLKSLMARRTYLEWPKEKSKRGLFWANLRAAINIKLTEQAK | soluble
MGHHHHHHSHMPKGIALALGLNAVDPKHYGGWAGKLNACEADAEDMAAIAAERGFAVTTLMTKAATRAKVIDAIGKAAKALGKGDIFMLSYSGHGGQVPDTSNDEPDGVDETWCLFDGELIDDELYALLGKFAAGVRVLVFSDSCHSGTVVKMAYYNGTTAARSAGPDEGEIRYRAMPQSVAMRTYRANREFYDTIQQKTKKVDLADVKASILLISGCQDNQLSQDGAFNGAFTGQLLRVWKNGLYKGSYRSFHKAIVRRMPPDQTPNFFTAGTPDPAFLKQRPFTV | soluble
MGHHHHHHSHMPKSQVKRQEVISELLVTEAAHVRMLRVLHDLFFQPMAECLFFPLEELQNIFPSLDELIEVHSLFLDRLMKRRQESGYLIEEIGDVLLARFDGAEGSWFQKISSRFCSRQSFALEQLKAKQRKDPRFCAFVQEAESRPRCRRLQLKDMIPTEMQRLTKYPLLLQSIGQNTEEPTEREKVELAAECCREILHHVNQAVRDMEDL | not soluble
MGHHHHHHSHMPLLVEGRRVRLPQSAGDLVRAHPPLEERARLLRGQSVQQVGPQGLLYVQQRELAVTSPKDGSISILGSDDATTCHIVVLRHTGNGATCLTHCDGTDTKAEVPLIMNSIKSFSDHAQCGRLEVHLVGGFSDDRQLSQKLTHQLLSEFDRQEDDIHLVTLCVTELNDREENENHFPVIYGIAVNIKTAEIYRASFQDRGPEEQLRAARTLAGGPMISIYDAETEQLRIGPYSWTPFPHVDFWLHQDDKQILENLSTSPLAEPPHFVEHIRSTLMFLKKHPSPAHTLFSGNKALLYKKNEDGLWEKISSPGS | not soluble
MGHHHHHHSHMQHPQTHRQLKETLYETIIGYFDKGKMWEEAISLCKELAEQYEMEIFDYELLSQNLIQQAKFYESIMKILRPKPDYFAVGYYGQGFPSFLRNKVFIYRGKEYERREDFQMQLMTQFPNAEKMNTTSAPGDDVKNAPGQYIQCFTVQPVLDEHPRFKNKPVPDQIINFYKSNYVQRFHYSRPVRRGTVDPENEFASMWIERTSFVTAYKLPGILRWFEVVHMSQTTISPLENAIETMSTANEKILMMINQYQSDETLPINPLSMLLNGIVDPAVMGGFAKYEKAFFTEEYVRDHPEDQDKLTHLKDLIAWQIPFLGAGIKIHEKRVSDNLRPFHDRMEECFKNLKMKVEKEYGVREMPDFDD | soluble
